Molecular target: PDGF-AB (Homo sapiens) (UniProt P04085+P01127)
Test: filter

PDGF-AB (Homo sapiens), sequence (P01127 82-190, chain 2 of 2, other chains not shown): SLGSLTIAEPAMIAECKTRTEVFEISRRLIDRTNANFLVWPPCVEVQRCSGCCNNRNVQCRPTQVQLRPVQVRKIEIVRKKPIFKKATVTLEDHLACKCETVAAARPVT

**Q.** Which binding signal (fold weaker than round 12 pool) (initial random library) does the source give for “ATCCGCCTGATTAGCGATACTNNNNNNNNNNNNNNNNNNNNNNNNNNNNNNNNNNNNNNNNACTTGAGCAAAATCACCTGCAGGGG [random ssDNA library]” here?
**A.** 700

**Q.** “ATCCGCCTGATTAGCGATACTNNNNNNNNNNNNNNNNNNNNNNNNNNNNNNNNNNNNNNNNACTTGAGCAAAATCACCTGCAGGGG [ssDNA SELEX round 12 pool]” was tested. Which Kd (round 12 enriched pool, data not shown) did it give?
**A.** 0.05 nM

— patent US5723594
